Test [1] concerns the target beta1-adrenergic receptor TIL (UniProt P08588). The settings on record: cited from earlier work.
Test [2] concerns the target T1, full-length rat endophilin A1 (C108S, E241C, C294S, C295S), labeled with Alexa 594-maleimide (rat, UniProt O35179 1-352, C108S | E241C | C294S | C295S, Alexa 594-maleimide on the cysteine (E241C)).
T1 construct: endophilin A1, rat, full length; The introduction calls endophilin a dimeric protein; also called endophilin-Alexa 594; single cysteine mutant of rat endophilin A1
Description: confocal fluorescence imaging of recruitment to peptide-conjugated GUVs; TIL-Alexa 488 covalently conjugated (cysteine-maleimide) to GUVs of MCC-PE/DOPC/DiD 5:94.5:0.5; Alexa 594-labeled protein added in solution; HEPES buffer (20 mM HEPES, 150 mM NaCl, 1 mM TCEP, pH 7.4); room temperature. Particulars: both partners purified.

T1 sequence (O35179 whole entry C108S/E241C/C294S/C295S): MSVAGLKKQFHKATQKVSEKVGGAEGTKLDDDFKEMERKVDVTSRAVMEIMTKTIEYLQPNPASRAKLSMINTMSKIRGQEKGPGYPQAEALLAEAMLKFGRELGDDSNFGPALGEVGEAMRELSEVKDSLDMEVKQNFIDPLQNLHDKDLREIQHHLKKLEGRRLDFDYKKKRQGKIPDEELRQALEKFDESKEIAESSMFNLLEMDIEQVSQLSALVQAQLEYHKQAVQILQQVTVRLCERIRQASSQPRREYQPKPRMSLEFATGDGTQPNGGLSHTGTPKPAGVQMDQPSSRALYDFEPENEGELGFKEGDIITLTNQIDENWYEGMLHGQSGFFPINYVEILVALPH

Turning to endophilin A1 (from UniProt Q99962), in test [1], the equilibrium dissociation constant (Kd) was 47 nM.

B1: third intracellular loop (TIL) of the β1-adrenergic receptor (amino acids 246–325), labeled with Alexa 488 (domain or fragment, UniProt P08588 246-325, looked up)
chain: RVFREAQKQVKKIDSCERRFLGGPARPPSPSPSPVPAPAPPPGPPRPAAAAATAPLANGRAGKRRPSRLVALREQKALKT
modifications: Alexa 488 on the N-terminal amine (30 to 50% labeling); Cys261 coupled to the maleimide lipid MCC-PE in the experiments with TIL-conjugated vesicles
notes: β1-adrenergic receptor, third intracellular loop, amino acids 246–325, cloned from the pcDNA3-Flag beta-1-adrenergic-receptor vector; 80 residues, 8861 Da; Cloned into BamHI/EcoRI of pGEX6p1 and cut with PreScission protease, so a few vector residues may remain at the N-terminus (surmise); also called TIL peptide; TIL-Alexa 488; source: E. coli BL21-CodonPlus (DE3)-RIL, purified (GST trap, …)
Take B1: the binding result in test [2] is given as “binds”.

By Kd is commonly meant the free concentration of one partner at which half of the binding sites on the other are occupied at equilibrium, for simple one-to-one binding.
